Measured values published in publication PMC5780041.

Assays:
Test in all cases: GST pull-down, quantified immunoblot
[1] = biological target: 4x tandem linear human ubiquitin (C-terminal His-tagged), phosphorylated in vitro by GST-TcPINK1 (UniProt P0CG48); conditions: + PINK1 (4xUb pre-treated with GST-TcPINK1); parent: est. 20; read off a plot
[2] = biological target: 3x tandem linear human ubiquitin (C-terminal His-tagged) (UniProt P0CG48); conditions: - PINK1 (non-phosphorylated 3xUb); parent: est. 16; read off a plot
[3] = biological target: 4x tandem linear human ubiquitin (C-terminal His-tagged) (UniProt P0CG48); conditions: - PINK1 (non-phosphorylated 4xUb); parent: est. 32; read off a plot
[4] = biological target: 3x tandem linear human ubiquitin (C-terminal His-tagged), phosphorylated in vitro by GST-TcPINK1 (UniProt P0CG48); conditions: + PINK1 (3xUb pre-treated with GST-TcPINK1); parent: est. 14; read off a plot
[5] = biological target: 2x tandem linear human ubiquitin (C-terminal His-tagged), phosphorylated in vitro by GST-TcPINK1 (UniProt P0CG48); conditions: + PINK1 (2xUb pre-treated with GST-TcPINK1); parent: est. 7.5; read off a plot

Sequence of GST-tagged mouse RABGEF1 (WT) 1-74aa, Q9JM13 A58D (Q9JM13 1-74 A58D): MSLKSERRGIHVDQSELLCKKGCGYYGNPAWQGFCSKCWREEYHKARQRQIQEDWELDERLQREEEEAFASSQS
Sequence of GST-tagged mouse RABGEF1 (WT) 1-74aa, Q9JM13 Y26A (Q9JM13 1-74 Y26A): as the sequence (Q9JM13 1-74 A58D) above, with Y26A, D58A counted along it

response [1]	response [2]	response [3]	response [4]	response [5]	Substance
17 % of total	8 % of total	24 % of total	8 % of total		GST-tagged mouse RABGEF1 (WT) 1-74aa, Q9JM13 A58D
20 % of total	14 % of total	28 % of total	13 % of total	4 % of total	GST-tagged mouse RABGEF1 (WT) 1-74aa, Q9JM13 Y26A
